Target: T1, polycystin-2 L677A N681A, HA-tagged (human, UniProt Q13563 1-968, L677A | N681A)
T1 sequence (looked up): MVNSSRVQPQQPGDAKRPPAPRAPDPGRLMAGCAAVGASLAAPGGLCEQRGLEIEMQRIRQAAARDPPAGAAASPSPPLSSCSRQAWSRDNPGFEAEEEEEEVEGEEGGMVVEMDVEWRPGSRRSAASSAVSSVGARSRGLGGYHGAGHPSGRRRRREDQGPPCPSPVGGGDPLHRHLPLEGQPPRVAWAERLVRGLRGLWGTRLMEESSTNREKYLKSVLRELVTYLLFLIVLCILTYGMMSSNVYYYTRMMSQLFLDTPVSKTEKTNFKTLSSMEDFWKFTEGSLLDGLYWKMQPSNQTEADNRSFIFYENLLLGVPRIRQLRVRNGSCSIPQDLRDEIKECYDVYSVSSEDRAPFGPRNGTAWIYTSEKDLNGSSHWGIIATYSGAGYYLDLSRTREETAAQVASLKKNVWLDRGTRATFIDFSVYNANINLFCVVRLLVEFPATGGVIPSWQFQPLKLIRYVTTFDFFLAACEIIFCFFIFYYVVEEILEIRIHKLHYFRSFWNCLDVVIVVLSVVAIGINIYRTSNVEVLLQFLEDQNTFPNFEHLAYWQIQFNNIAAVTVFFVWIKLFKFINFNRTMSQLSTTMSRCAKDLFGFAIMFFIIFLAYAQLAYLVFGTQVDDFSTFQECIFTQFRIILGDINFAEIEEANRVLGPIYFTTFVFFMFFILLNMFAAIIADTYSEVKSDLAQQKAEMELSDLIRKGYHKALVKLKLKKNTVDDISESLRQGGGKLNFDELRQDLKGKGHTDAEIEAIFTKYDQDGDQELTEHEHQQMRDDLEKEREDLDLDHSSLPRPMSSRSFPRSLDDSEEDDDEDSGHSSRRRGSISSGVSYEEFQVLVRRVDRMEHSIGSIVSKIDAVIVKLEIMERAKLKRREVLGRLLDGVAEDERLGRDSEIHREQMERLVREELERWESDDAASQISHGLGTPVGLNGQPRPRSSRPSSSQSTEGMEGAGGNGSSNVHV
Test: cell-based or functional assay

B1: C-terminal fragment of polycystin-1 R4100A R4107A H4111A (PC1-CTF AAA), V5-tagged (domain or fragment, human, UniProt P98161 3049-4303, looked up)
chain: TAFGASLFVPPSHVRFVFPEPTADVNYIVMLTCAVCLVTYMVMAAILHKLDQLDASRGRAIPFCGQRGRFKYEILVKTGWGRGSGTTAHVGIMLYGVDSRSGHRHLDGDRAFHRNSLDIFRIATPHSLGSVWKIRVWHDNKGLSPAWFLQHVIVRDLQTARSAFFLVNDWLSVETEANGGLVEKEVLAASDAALLRFRRLLVAELQRGFFDKHIWLSIWDRPPRSRFTRIQRATCCVLLICLFLGANAVWYGAVGDSAYSTGHVSRLSPLSVDTVAVGLVSSVVVYPVYLAILFLFRMSRSKVAGSPSPTPAGQQVLDIDSCLDSSVLDSSFLTFSGLHAEQAFVGQMKSDLFLDDSKSLVCWPSGEGTLSWPDLLSDPSIVGSNLRQLARGQAGHGLGPEEDGFSLASPYSPAKSFSASDEDLIQQVLAEGVSSPAPTQDTHMETDLLSSLSSTPGEKTETLALQRLGELGPPSPGLNWEQPQAARLSRTGLVEGLRKRLLPAWCASLAHGLSLLLVAVAVAVSGWVGASFPPGVSVAWLLSSSASFLASFLGWEPLKVLLEALYFSLVAKRLHPDEDDTLVESPAVTPVSARVPRVRPPHGFALFLAKEEARKVKRLHGMLRSLLVYMLFLLVTLLASYGDASCHGHAYRLQSAIKQELHSRAFLAITRSEELWPWMAHVLLPYVHGNQSSPELGPPRLRQVRLQEALYPDPPGPRVHTCSAAGGFSTSDYDVGWESPHNGSGTWAYSAPDLLGAWSWGSCAVYDSGGYVQELGLSLEESRDRLRFLQLHNWLDNRSRAVFLELTRYSPAVGLHAAVTLRLEFPAAGRALAALSVRPFALRRLSAGLSLPLLTSVCLLLFAVHFAVAEARTWHREGRWRVLRLGAWARWLLVALTAATALVRLAQLGAADRQWTRFVRGRPRRFTSFDQVAQLSSAARGLAASLLFLLLVKAAQQLRFVRQWSVFGKTLCRALPELLGVTLGLVVLGVAYAQLAILLVSSCVDSLWSVAQALLVLCPGTGLSTLCPAESWHLSPLLCVGLWALRLWGALALGAVILAWRYAALRGELYRPAWEPQDYEMVELFLRRLRLWMGLSKVKEFRHKVRFEGMEPLPSRSSRGSKVSPDVPPPSAGSDASHPSTSSSQLDGLSVSLGRLGTRCEPEPSRLQAVFEALLTQFDRLNQATEDVYQLEQQLHSLQGRRSSRAPAGSSRGPSPGLRPALPSRLARASRGVDLATGPSRTPLRAKNKVHPSST
  PC2/PC1 molar ratio of injected cRNA (2.5 pmol PC2 AA, 0.77 pmol PC1-CTF AAA) at which the shift of the reversal potential saturated: 3.2 PC2 per PC1 (molar ratio of cRNA)

Reference: publication PMC12183636, “Ion channel function of polycystin‐2/polycystin‐1 heteromer revealed by structure‐guided mutagenesis” (Febs Letters, 2025)
